Experimental data taken from patent US20250222125A1, “Anti-FGFR2b Antibodies, Conjugates and Methods of Use” (BeiGene, Ltd., priority 2024, published 2025).
Entries after “also recorded” stand apart in the source; their conditions may differ.

Experiments:
human FGFR2b [1] = target: T1, human FGFR2b (Homo sapiens, UniProt P21802); assay: FACS binding to native FGFR2b on Expi293 cells, human FGFR2b (Example 10); conditions: Expi293 cells overexpressing human FGFR2b
Experimental: (§1) To evaluate the binding activity of anti-FGFR2b antibodies to native FGFR2b on living cells, Expi293 cells were engineered to overexpress human FGFR2b, cyno FGFR2b, mouse FGFR2b, or human FGFR2c. Expi293 cells expressing antigens were seeded in 96-well plates, and were incubated with serially diluted anti-FGFR2b antibodies. Goat anti-human IgG [Alexa Fluor® 647] […] The change of mean fluorescent intensity (MFI) of humanized candidates BGAh9239 and BGAh9179 was measured by flow cytometry. EC50 values for dose-dependent binding to native human FGFR2b, cyno FGFR2b, mouse FGFR2b, and human FGFR2c were determined using sigmoidal dose-response curves of nonlinear fit from GraphPad Prism™.

Human FGFR2c [2] = target: T2, Human FGFR2c (Homo sapiens, UniProt P21802); assay: ELISA protein binding to human FGFR2c (Example 4); conditions: coated protein
T2 sequence (P21802 22-821): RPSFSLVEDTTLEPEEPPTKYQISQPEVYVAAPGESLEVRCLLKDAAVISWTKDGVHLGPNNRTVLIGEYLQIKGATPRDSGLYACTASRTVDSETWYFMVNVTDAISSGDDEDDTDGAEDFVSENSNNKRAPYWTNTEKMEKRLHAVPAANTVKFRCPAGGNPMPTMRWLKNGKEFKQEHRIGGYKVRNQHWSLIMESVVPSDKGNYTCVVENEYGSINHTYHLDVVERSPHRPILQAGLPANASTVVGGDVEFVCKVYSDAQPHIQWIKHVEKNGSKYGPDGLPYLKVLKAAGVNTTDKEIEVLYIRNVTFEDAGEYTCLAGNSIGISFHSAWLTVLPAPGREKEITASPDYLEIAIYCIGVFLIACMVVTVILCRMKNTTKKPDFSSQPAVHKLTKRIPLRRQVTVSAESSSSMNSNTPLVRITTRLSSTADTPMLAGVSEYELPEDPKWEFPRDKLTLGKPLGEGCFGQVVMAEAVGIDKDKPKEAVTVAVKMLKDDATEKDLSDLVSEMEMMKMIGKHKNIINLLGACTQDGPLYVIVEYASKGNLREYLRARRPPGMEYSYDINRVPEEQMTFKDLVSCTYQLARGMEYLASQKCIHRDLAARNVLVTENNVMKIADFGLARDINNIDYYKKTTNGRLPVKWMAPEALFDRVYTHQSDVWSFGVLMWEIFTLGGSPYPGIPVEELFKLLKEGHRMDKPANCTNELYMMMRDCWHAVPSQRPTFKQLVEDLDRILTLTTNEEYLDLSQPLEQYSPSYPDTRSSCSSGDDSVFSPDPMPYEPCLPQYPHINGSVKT
Experimental: (§2) The binding affinity and specificity of purified anti-FGFR2b antibodies were determined by ELISA and FACS. […] After incubation and washing, the plates were developed with HRP substrate and absorbance was measured. […] After washing twice with FACS buffer, diluted Alexa Fluor 647 goat anti-human IgG secondary antibody was added and incubated with cells for 30 minutes at 4° C. in the dark. After washing twice with FACS buffer, cells were resuspended with FACS buffer and read using a Becton Dickinson LSR FortessaTM cell analyzer. Non-specific binding of these antibodies was evaluated by FACS binding against parental 293T blank cells. Titration curves were generated using a sigmoidal dose-response of nonlinear fit from GraphPadTM Software by Dotmatics.

human FGFR2b [3] = target: T1, human FGFR2b; assay: SPR affinity determination, human FGFR2b (Example 9); type: binding; conditions: for Kd: kd/ka
Experimental: (§3) For affinity determination, antibodies were captured by anti-human Fc antibodies, and used in the affinity assay based on surface plasmon resonance (SPR) technology. SPR signals were analyzed to calculate the association rates (ka) and dissociation rates (kd) by using the one-to-one Langmuir binding model (BIA Evaluation Software, GE Life Sciences). The equilibrium dissociation constant (KD) was calculated as the ratio of kd/ka. Rmax represents the maximal feasible SPR signal generated by an interaction between a ligand-analyte pair and is represented in response units (RU). BGAh9239 and BGA9179 show similar binding profiles to human FGFR2b and cyno FGFR2b, and are similar to their parental antibodies BGAm1823 and BGAm1371, respectively.

Murine FGFR2b OE cells = target: T3, Murine FGFR2b OE cells (Mus musculus, UniProt P21803); assay: FACS cellular binding, murine FGFR2b OE cells (Example 4)
T3 construct: expressed in transfected cells; host or cells: 293T
T3 sequence (P21803 22-707 isoform P21803-2 limits assumed): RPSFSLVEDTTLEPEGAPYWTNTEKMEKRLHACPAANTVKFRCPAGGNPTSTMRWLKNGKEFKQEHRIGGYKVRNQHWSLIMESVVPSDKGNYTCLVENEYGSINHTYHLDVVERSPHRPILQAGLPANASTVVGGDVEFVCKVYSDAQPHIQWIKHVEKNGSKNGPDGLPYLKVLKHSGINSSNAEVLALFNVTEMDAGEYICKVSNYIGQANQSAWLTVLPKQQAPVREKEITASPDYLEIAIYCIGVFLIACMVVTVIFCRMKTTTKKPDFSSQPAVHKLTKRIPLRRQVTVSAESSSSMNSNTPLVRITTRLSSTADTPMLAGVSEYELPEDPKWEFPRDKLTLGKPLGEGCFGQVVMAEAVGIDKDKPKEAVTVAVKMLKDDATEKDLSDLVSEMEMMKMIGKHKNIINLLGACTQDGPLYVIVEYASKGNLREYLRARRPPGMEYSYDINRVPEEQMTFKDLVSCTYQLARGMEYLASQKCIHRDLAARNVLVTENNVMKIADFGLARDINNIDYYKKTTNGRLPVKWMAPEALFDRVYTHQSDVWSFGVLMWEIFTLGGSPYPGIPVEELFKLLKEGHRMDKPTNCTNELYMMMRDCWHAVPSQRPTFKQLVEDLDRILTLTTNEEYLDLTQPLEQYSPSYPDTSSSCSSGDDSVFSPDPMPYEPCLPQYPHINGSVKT
Experimental: as §2

Human FGFR2c [4] = target: T2, Human FGFR2c; assay: ELISA binding to recombinant human FGFR2c (Example 11); conditions: for Emax (A450): human FGFR2c; for binding to human FGFR2c: in words
BaF3_hFGFR2b OE cells = assay: Ligand-induced proliferation inhibition assay in BaF3_hFGFR2b OE cells; type: cell-based; conditions: antibody 10 μg/ml, heparin 5 μg/ml, 72 hours
Experimental: The inhibition activity of antibody on ligand-induced cell proliferation was evaluated in an FGFR2b engineered BaF3 cell line system (BaF3_hFGFR2b OE). BaF3 cells are dependent on interleukin-3 (IL-3) for growth. The BaF3 system allows for testing of kinases and kinase inhibitors. Some protein kinases can render BaF3 cells to be independent of IL-3, whereas kinase inhibitors antagonize this effect. Cells were seeded in 96-well plates at 30,000 cells/well in RPMI-1640 medium containing 10% fetal bovine serum. Anti-FGFR2b antibodies at a concentration of 10 μg/ml were added to the assay plates. Recombinant human FGF7 or FGF10 protein (40 ng/ml) in the presence of heparin (5 μg/ml) was added to the assay plates. The plates were incubated at 37° C., 5% CO2, 95% humidity in an incubator for 72 hours. Following incubation, 50 μl Cell Titer Glo reagent was added to each well and the plates were mixed for 1 min and then incubated at RT for 10 min. Luminescence signals were detected and recorded.
The Ba/F3 system is used to investigate downstream oncogenic signaling pathways and the susceptibility of driver variants to therapeutics. Driver-addicted Ba/F3 cells die when the driver-engaged signaling pathway is inhibited, and this effect can be rescued by re-introduction of […].
FIGS. 6 and 7 show the results of Ba/F3 proliferation assays. The net growth on Ba/F3 cells overexpressing FGFR2b is reported after treatment with anti-FGFR2b antibodies of the present disclosure. Normal Ba/F3 cells die shortly after withdrawal of exogenous […]. […] Comparator BGA2311 binds at the N-terminus and is not considered to be a ligand blocker. Thus, BGAm1371 may partially block the FGFR2b signaling pathway, such as the signaling pathway mediated by FGF7.

human FGFR2b [5] = target: T1, human FGFR2b; assay: ELISA protein binding to human FGFR2b (Example 4); conditions: coated protein
Experimental: as §2

[6] = system: phosphorylated FGFR in SNU-16 cells; assay: Inhibition of FGFR2 signaling in SNU-16 cells (Western blot of pFGFR); type: cell-based; conditions: antibody 10 μg/ml, FGF7 10 ng/ml, 2 hours
Experimental: Inhibition of the FGFR2 signaling pathway by the humanized antibodies was investigated. SNU-16 cells were grown in RPMI-1640 medium with 10% FBS, collected and washed twice with free medium and then seeded in 12-well plates at 1.5E6 cells/well in serum-free RPMI-1640. The plates were incubated at 37° C., 5% CO2, and 95% humidity in an incubator overnight. Anti-FGFR2b antibodies at a concentration of 10 μg/ml were added to the assay plates. Recombinant human FGF7 or FGF10 protein (10 ng/ml) in the presence of heparin (5 μg/ml) was added to the assay plates. The plates were incubated in a 37° C., 5% CO2, 95% humidity incubator for 2 hours. Following 2 hours incubation, cells were collected and washed twice with cold PBS. NP40 lysis buffer containing 1×PMSF and 1× Protease plus phosphatase inhibitors were added to the cell pellets. The mixture was pipetted up and down to suspend the pellet. The mixture was inverted gently and each placed for 10 minutes on ice, for a total of 30 minutes. The mixture was centrifuged at 12000× rpm for 10 minutes to pellet the cell debris. The supernatant was transferred to a new tube to quantify total protein concentration by BCA Kit. The protein samples were then split and stored at −80° C. for further Western blotting to detect the expression of pFGFR and total FGFR2.
Western blotting procedure: The completely thawed protein samples were mixed with 4×SDS loading buffer and were heated for 10 min at 37° C. Then the mixtures were centrifuged at ˜3500×rpm for 5 min. Equal amounts of proteins were loaded into an SDS-PAGE gel, whereafter proteins were transferred to PVDF membranes using iBlot. The membranes were then subjected to Western blotting analysis, focusing on phosphorylated FGFR and total FGFR2.

293T blank cells = assay: FACS non-specific binding, parental 293T blank cells (Example 4)
Experimental: as §2

Human FGFR2c [7] = target: T2, Human FGFR2c; assay: FACS binding on Expi293 cells, human FGFR2c (Example 10); conditions: for Emax (MFI): Expi293 cells overexpressing human FGFR2c
Experimental: as §1

Cyno FGFR2b [8] = assay: SPR affinity determination, cyno FGFR2b (Example 9); type: binding
Experimental: as §3

Cyno FGFR2b [9] = assay: ELISA binding to recombinant cyno FGFR2b (Example 11)
Mouse FGFR2b = target: T4, Mouse FGFR2b (Mus musculus, UniProt P21803); assay: FACS binding on Expi293 cells, mouse FGFR2b (Example 10); conditions: Expi293 cells overexpressing mouse FGFR2b
T4 construct: expressed in transfected cells; host or cells: Expi293
T4 sequence (P21803 22-707 isoform P21803-2 limits assumed): as above
Experimental: as §1

Human FGFR2b OE cells = target: T5, Human FGFR2b OE cells (Homo sapiens, UniProt P21802); assay: FACS cellular binding, human FGFR2b OE cells (Example 4)
T5 construct: expressed in transfected cells; host or cells: 293T
T5 sequence (P21802 22-822 isoform P21802-3 limits assumed): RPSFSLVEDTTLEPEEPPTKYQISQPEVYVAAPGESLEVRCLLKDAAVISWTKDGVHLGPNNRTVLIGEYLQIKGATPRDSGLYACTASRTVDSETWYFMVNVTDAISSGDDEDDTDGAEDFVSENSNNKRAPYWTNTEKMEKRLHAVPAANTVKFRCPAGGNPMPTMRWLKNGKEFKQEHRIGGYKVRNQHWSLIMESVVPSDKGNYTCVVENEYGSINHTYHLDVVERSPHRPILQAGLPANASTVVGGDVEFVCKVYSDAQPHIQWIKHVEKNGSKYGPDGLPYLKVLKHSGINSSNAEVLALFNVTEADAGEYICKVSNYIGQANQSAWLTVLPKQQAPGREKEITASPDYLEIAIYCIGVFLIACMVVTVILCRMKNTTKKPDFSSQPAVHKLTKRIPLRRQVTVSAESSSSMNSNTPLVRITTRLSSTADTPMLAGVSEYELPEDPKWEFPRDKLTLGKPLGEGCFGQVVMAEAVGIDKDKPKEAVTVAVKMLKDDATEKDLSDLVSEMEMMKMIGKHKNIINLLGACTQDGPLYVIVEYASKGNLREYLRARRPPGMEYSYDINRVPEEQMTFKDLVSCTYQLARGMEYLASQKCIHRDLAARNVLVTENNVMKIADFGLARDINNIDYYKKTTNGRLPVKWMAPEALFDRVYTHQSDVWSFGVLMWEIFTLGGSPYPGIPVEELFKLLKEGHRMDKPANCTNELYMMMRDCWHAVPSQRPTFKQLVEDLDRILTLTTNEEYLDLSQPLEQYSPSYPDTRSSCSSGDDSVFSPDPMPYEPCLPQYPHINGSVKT
Experimental: as §2

Human FGFR2c OE cells = Human FGFR2c OE cells (Homo sapiens, UniProt P21802); assay: FACS cellular binding, human FGFR2c OE cells (Example 4)
Chain of Human FGFR2c OE cells (P21802 22-821): as the sequence (P21802 22-821) above
Experimental: as §2

human FGFR2b [10] = target: T1, human FGFR2b; assay: ELISA binding to recombinant human FGFR2b (Example 11)
[11] = target: T6, soluble human FGFR2b proteins (Homo sapiens, UniProt P21802); assay: SPR binding kinetics (Biacore 8K, Example 5); conditions: room temperature
T6 construct: soluble human FGFR2b proteins (his tag, in-house generated); His tag; made in house
T6 sequence (P21802 22-378 isoform P21802-3 limits assumed): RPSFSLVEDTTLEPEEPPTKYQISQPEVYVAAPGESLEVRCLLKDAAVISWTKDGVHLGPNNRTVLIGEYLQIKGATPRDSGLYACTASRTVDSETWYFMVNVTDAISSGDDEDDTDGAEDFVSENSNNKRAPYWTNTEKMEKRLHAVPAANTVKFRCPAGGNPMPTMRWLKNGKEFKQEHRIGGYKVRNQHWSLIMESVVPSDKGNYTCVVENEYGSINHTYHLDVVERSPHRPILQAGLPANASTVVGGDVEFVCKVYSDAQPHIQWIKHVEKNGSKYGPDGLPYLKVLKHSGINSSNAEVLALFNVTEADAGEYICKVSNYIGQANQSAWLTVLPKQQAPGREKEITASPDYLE
Experimental: The binding affinity and kinetics of purified anti-FGFR2b antibodies were determined by surface plasmon resonance (Biacore 8K, GE Life Sciences) at room temperature. Briefly, mouse anti-human IgG Fc antibody was immobilized via amine coupling onto a activated CM5 biosensor chip (Cat. No. BR100530, GE Life Sciences). Purified monoclonal antibody candidates were flowed over the chip surface and captured by anti-human IgG antibody. Then a serial dilution of soluble human FGFR2b proteins (his tag, in-house generated) were injected over the antibodies captured surface and changes in surface plasmon resonance signals were analyzed to calculate the association rates (kon) and dissociation rates (koff) by using the one-to-one Langmuir binding model (BIA Evaluation Software, GE Life Sciences). The equilibrium dissociation constant (KD) was calculated as the ratio koff/kon.

T1 sequence (P21802 22-822 isoform P21802-3 limits assumed): as the sequence (P21802 22-822 isoform P21802-3 limits assumed) above

Row | Molecule | EC50 (human FGFR2b [1]) | Emax (MFI) (human FGFR2b [1]) | Human FGFR2c binding Emax(OD450) (Human FGFR2c [2]) | Rmax (human FGFR2b [3]) | ka (human FGFR2b [3]) | kd (human FGFR2b [3]) | Kd (human FGFR2b [3]) | EC50 (Murine FGFR2b OE cells) | Emax (A450) (Human FGFR2c [4]) | binding to human FGFR2c (Human FGFR2c [4]) | EC50 (human FGFR2b [5]) | Human FGFR2b binding Emax(OD450) (human FGFR2b [5]) | 293T blank cells binding Emax (293T blank cells) | Emax (MFI) (Human FGFR2c [7]) | ka (Cyno FGFR2b [8]) | kd (Cyno FGFR2b [8]) | Emax (A450) (Cyno FGFR2b [9]) | EC50 (Mouse FGFR2b) | Emax (MFI) (Mouse FGFR2b) | EC50 (Human FGFR2b OE cells) | also measured
1 | BGAm1371: parental murine anti-FGFR2b antibody (parental mouse clone); VH SEQ ID NO: 32, VL SEQ ID NO: 34 (antibody, V domains shown, Synthetic: VH AA; Synthetic: VL AA) VH: QVQLKQSGAELVKPGASVKLSCTASGFNIKDTYIHWVKQRPEQGLEWIGRIDPANGNTMFASEFQGKATITAYTSSNTAYMQLSSLTSGDTAVYYCARSKIHYDYDEGFAYWGQGTLVTVSS VL: NIVLTQSPPSLAVSLGQRATVSCRASESVDDYGYSFLHWYQQKPGQPPKLLIYRASNLESGIPARFSGSGSRTDFTLTINPVETDDVATYYCQQSNQNPRTFGGGTKLEIK | 1.5 nM | 3052664 MFI | 0.07 OD450 | 96.3 RU | 7.29E+04 M^−1S^−1 | 1.19E−03 S^−1 | 16.3 nM | 1.78 nM | 0.204 A450 | no detectable binding | 0.19 nM | 3.35 OD450 | 28 MFI | 23051 MFI | 7.97E+04 M^−1S^−1 | 1.25E−03 S^−1 | 3.018 A450 | 3.5 nM | 4984598 MFI | 1.25 nM | inhibition of FGF7-induced BaF3_hFGFR2b cell proliferation (BaF3_hFGFR2b OE cells; FGF7 40 ng/ml): ten times less potent compared to BGA1421 and BGAm1823; also recorded: weaker blocking than comparator BGA1421; inhibition of FGF10-induced BaF3_hFGFR2b cell proliferation (BaF3_hFGFR2b OE cells; FGF10 40 ng/ml): did not inhibit the net growth; FGF7-induced FGFR phosphorylation [6]: weakly inhibited; Human FGFR2c OE cells binding Emax (Human FGFR2c OE cells): 33 MFI; EC50 (human FGFR2b [10]): 0.0309 nM; Emax (A450) (human FGFR2b [10]): 3.013 A450
2 | BGAh9239: humanized anti-FGFR2b IgG1 antibody from murine BGAm1823; VH SEQ ID NO: 9, VL SEQ ID NO: 10 (antibody, V domains shown, Synthetic: VH AA; Synthetic: VL AA) VH: QVQLVQSGAEVKKPGSSVKVSCKASGYTFSIYWLNWVRQAPGQGLEWMGQIYPENADTNYSGKFKGRVTITADKSTSTAYMELSSLRSEDTAVYFCARGGFDYWGQGTLVTVSS VL: DIQMTQSPSSLSASVGDRVTITCRASENIYSNLAWYQQKPGKAPKLLIYTATNLAEGVPSRFSGSGSGTDFTLTISSLQPEDFATYYCQHFYGILYTFGQGTRLEIK | 2.4 nM | 3082608 MFI | 0.07 OD450 | 80.9 RU | 8.05E+04 M^−1S^−1 | 3.00E−03 S^−1 | 37.3 nM | 1.59 nM | 0.130 A450 | no detectable binding | 0.26 nM | 3.37 OD450 | 31 MFI | 23848 MFI | 7.99E+04 M^−1S^−1 | 2.72E−03 S^−1 | 2.931 A450 | 2.67 nM | 5098781 MFI | 1.84 nM | ka ([11]; antibody captured): 76600 M⁻¹ s⁻¹; kd ([11]; antibody captured): 0.00189 s⁻¹; Kd ([11]; koff/kon): 24.7 nM; binding to native human FGFR2c (Human FGFR2c [7]; living Expi293 cells, in words): no detectable binding; Human FGFR2c OE cells binding Emax (Human FGFR2c OE cells): 36 MFI; EC50 (human FGFR2b [10]): 0.031 nM; Emax (A450) (human FGFR2b [10]): 2.945 A450
